Inhibition of ephrin-B2 Fc-induced tyrosine phosphorylation of endogenous EphB4 in B16 melanoma cells (blocks EphB4 with ephrin-B2); 2 µM peptide reduce phosphorylation to undetectable levels data for one substance are collected here from paper PMC3237458, “PEGylation Potentiates the Effectiveness of an Antagonistic Peptide That Targets the EphB4 Receptor with Nanomolar Affinity” (PLoS ONE, 2011).

The test deals with EphB4 Fc (UniProt P54761).
EphB4 Fc, sequence (P54761 16-539): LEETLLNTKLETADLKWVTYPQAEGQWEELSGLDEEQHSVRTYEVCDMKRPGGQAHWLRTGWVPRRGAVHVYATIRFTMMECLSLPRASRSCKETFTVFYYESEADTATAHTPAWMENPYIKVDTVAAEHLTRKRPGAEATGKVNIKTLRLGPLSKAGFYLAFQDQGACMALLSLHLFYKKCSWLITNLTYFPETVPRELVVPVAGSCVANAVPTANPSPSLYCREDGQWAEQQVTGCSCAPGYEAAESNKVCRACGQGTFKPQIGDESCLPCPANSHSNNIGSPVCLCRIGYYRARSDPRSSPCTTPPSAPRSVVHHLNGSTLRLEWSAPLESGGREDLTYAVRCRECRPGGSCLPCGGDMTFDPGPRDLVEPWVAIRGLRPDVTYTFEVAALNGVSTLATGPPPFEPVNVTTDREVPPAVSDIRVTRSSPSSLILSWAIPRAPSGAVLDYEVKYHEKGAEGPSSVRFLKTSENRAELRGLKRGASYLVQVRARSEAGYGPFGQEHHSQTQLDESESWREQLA

The substance “PEGylated TNYL-RAW (PEG-TNYL-RAW) (peptide)” came in with an inhibition of ephrin-B2 Fc-induced tyrosine phosphorylation of endogenous EphB4 in B16 melanoma cells (blocks EphB4 with ephrin-B2); 2 µM peptide reduce phosphorylation to undetectable levels of 90 nM.
